Results published in article doi:10.1101/2024.11.29.625639.

Biological target: HCMV gHgLgO trimer with gO249 mutant, from virions (human cytomegalovirus, strain TB40/E (TB40-BAC4))
Assay: co-IP + pull-down

Substance: HCMV glycoprotein gB, from virions (natural protein)
- fold change of the interaction with gB against gHgLgOWT: 4 fold
